Data as given in the RNAGym collection of RNA variant scans (doi:10.1021/acssynbio.7b00057).

B1: Pistol ribozyme (parent)
chain: GGGUCGUUGUUCCAUAAUCGCGUGGAUAUGGCACGCAAGUUUCUACCGGGCACCGUAAAUGUCCGACUGGAGCCGUUCGGGCGGCUAUAAACAGACCUCAGGCCCGAAGCGUGGCGGCACCUGCCGCCGGUGGUAAAAAAGAUCGGAAGAGCACACGUCU

Variants of: B1
Assay: aptazyme ON/OFF ratio, guanine; higher = stronger switching; co-transcriptional cleavage with and without guanine

Variant | aptazyme ON/OFF ratio
U7G U8C G9C U10G U11A C12U C13U | 1.03
U7G U8C G9C U10G U11A C12U C13A | 1.03
U7G U8C G9C U10G U11A C12U C13G | 1.04
U7G U8C G9C U11C C13A | 1.46
U7G U8C G9C U11C C13U | 1.38
U7G U8C G9C U11C C13G | 1.05
U7G U8C G9A U11G C12A | 1.1
U7G U8C G9A U11G C12G | 1.14
U7G U8C G9A U11G C12U | 1.3
U7G U8C G9C U11A C13G | 1.06
U7G U8C G9C U11A C13U | 1.18
U7G U8C G9C U11A C13A | 1.09
U7G U8C G9C U10A C13G | 1.07
U7G U8C G9C U10A C13A | 1.08
U7G U8C G9C U10A C13U | 1.07
U7G U8C G9C U11A C12A C13U | 1.13
U7G U8C G9C U11A C12A C13A | 1.11
U7G U8C G9C U11A C12A C13G | 1.14
U7G U8C G9C U10A U11C C12A C13U | 1.27
U7G U8C G9C U10A U11C C12A C13G | 1.19
U7G U8C G9C U10A U11C C12A C13A | 1.28
U7G U8C G9C C12G C13A | 1.13
U7G U8C G9C C12G C13G | 1.12
U7G U8C G9C C12G C13U | 1.09

Variant | aptazyme ON/OFF ratio
U7G U8C G9U C12G C13U | 1.32
U7G U8C G9U C12G C13G | 1.32
U7G U8C G9U C12G C13A | 1.18
U7G U8C G9A U11G C13A | 1.14
U7G U8C G9A U11G C13G | 1.09
U7G U8C G9A U11G C13U | 1.19
U7G U8C G9C U10A U11A | 3.4
U7G U8C G9C U10A U11C | 1.18
U7G U8C G9C U10A U11G | 1.51
U7G U8C G9C U10C U11A C13U | 1.03
U7G U8C G9C U10C U11A C13A | 1.04
U7G U8C G9C U10C U11A C13G | 1.11
U7G U8C G9C U10A U11A C12G C13G | 1.11
U7G U8C G9C U10A U11A C12G C13U | 1.13
U7G U8C G9C U10A U11A C12G C13A | 1.1
U7G U8C G9C U10C U11A C12G C13U | 1.12
U7G U8C G9C U10C U11A C12G C13G | 1.17
U7G U8C G9C U10C U11A C12G C13A | 1.2
U7G U8C G9A U11C C12G C13A | 1.05
U7G U8C G9A U11C C12G C13U | 1.16
U7G U8C G9A U11C C12G C13G | 1.05
U7G U8C G9U U10A C13G | 1.08
U7G U8C G9U U10A C13U | 2.29
U7G U8C G9U U10A C13A | 1.35

Variant | aptazyme ON/OFF ratio
U7G U8C G9A U11G C12U C13G | 1.07
U7G U8C G9A U11G C12U C13A | 1.11
U7G U8C G9A U11G C12U C13U | 1.18
U7G U8C G9U U10A C12U C13U | 1.16
U7G U8C G9U U10A C12U C13G | 1.16
U7G U8C G9U U10A C12U C13A | 1.21
U7G U8C G9C U10A U11G C12U C13U | 1.17
U7G U8C G9C U10A U11G C12U C13G | 1.24
U7G U8C G9C U10A U11G C12U C13A | 1.22
U7G U8C G9C U10G U11G | 1.17
U7G U8C G9C U10G U11A | 1.11
U7G U8C G9C U10G U11C | 1.15
U7G U8C G9C U10A U11G C12G C13G | 1.12
U7G U8C G9C U10A U11G C12G C13U | 1.1
U7G U8C G9C U10A U11G C12G C13A | 1.08
U7G U8C G9C U10G U11G C12A C13G | 1.13
U7G U8C G9C U10G U11G C12A C13A | 1.11
U7G U8C G9C U10G U11G C12A C13U | 1.1
U7G U8C G9C U10C U11C C12A C13G | 1.21
U7G U8C G9C U10C U11C C12A C13A | 1.05
U7G U8C G9C U10C U11C C12A C13U | 1.05
U7G U8C G9C U10G U11C C12A C13A | 1.34
U7G U8C G9C U10G U11C C12A C13U | 1.36
U7G U8C G9C U10G U11C C12A C13G | 1.18

Variant | aptazyme ON/OFF ratio
U7G U8C G9C U10G C13U | 1.33
U7G U8C G9C U10G C13A | 1.3
U7G U8C G9C U10G C13G | 1.26
U7G U8C G9C U10C U11A C12A C13U | 1.04
U7G U8C G9C U10C U11A C12A C13A | 1.04
U7G U8C G9C U10C U11A C12A C13G | 1.09
U7G U8C G9C C12A C13A | 1.15
U7G U8C G9C C12A C13G | 1.15
U7G U8C G9C C12A C13U | 1.16
U7G U8C G9C U10G U11G C12U C13U | 1.12
U7G U8C G9C U10G U11G C12U C13G | 1.09
U7G U8C G9C U10G U11G C12U C13A | 1.09
U7G U8C G9C U11A C12G C13U | 1.1
U7G U8C G9C U11A C12G C13A | 1.13
U7G U8C G9C U11A C12G C13G | 1.16
U7G U8C G9C U10C U11A C12U | 1.06
U7G U8C G9C U10C U11A C12A | 1.06
U7G U8C G9C U10C U11A C12G | 1.11
U7G U8C G9C U10A U11C C12G C13G | 1.14
U7G U8C G9C U10A U11C C12G C13U | 1.31
U7G U8C G9C U10A U11C C12G C13A | 1.33
U7G U8C G9C U10G C12A C13A | 1.1
U7G U8C G9C U10G C12A C13U | 1.13
U7G U8C G9C U10G C12A C13G | 1.1

Variant | aptazyme ON/OFF ratio
U7G U8C G9C U10G U11G C12G C13A | 1.06
U7G U8C G9C U10G U11G C12G C13U | 1.09
U7G U8C G9C U10G U11G C12G C13G | 1.08
U7G U8C G9C U10A U11C C12U C13U | 1.09
U7G U8C G9C U10A U11C C12U C13A | 1.36
U7G U8C G9C U10A U11C C12U C13G | 1.3
U7G U8C G9C U10A U11G C12A C13A | 1.1
U7G U8C G9C U10A U11G C12A C13U | 1.11
U7G U8C G9C U10A U11G C12A C13G | 1.12
U7G U8C G9U U10A C12G C13G | 1.08
U7G U8C G9U U10A C12G C13U | 1.22
U7G U8C G9U U10A C12G C13A | 1.13
U7G U8C G9C U10C U11G C12G | 1.06
U7G U8C G9C U10C U11G C12A | 1.14
U7G U8C G9C U10C U11G C12U | 1.1
U7G U8C G9C U10G U11C C13A | 1.15
U7G U8C G9C U10G U11C C13G | 1.36
U7G U8C G9C U10G U11C C13U | 1.34
U7G U8C G9C C12U C13G | 1.12
U7G U8C G9C C12U C13U | 1.21
U7G U8C G9C C12U C13A | 1.1
U7G U8C G9C U10C U11C C12U C13G | 1.21
U7G U8C G9C U10C U11C C12U C13A | 1.05
U7G U8C G9C U10C U11C C12U C13U | 1.03

Variant | aptazyme ON/OFF ratio
U7G U8C G9U U10A U11A C12G C13G | 1.16
U7G U8C G9U U10A U11A C12G C13A | 1.07
U7G U8C G9C U11A C12U C13G | 1.13
U7G U8C G9C U11A C12U C13U | 1.22
U7G U8C G9C U11A C12U C13A | 1.09
U7G U8C G9C U10G U11A C13G | 1.19
U7G U8C G9C U10G U11A C13U | 1.05
U7G U8C G9C U10G U11A C13A | 1.05
U7G U8C G9U U10A C12G | 1.77
U7G U8C G9U U10A C12U | 2.85
U7G U8C G9U U10A C12A | 1.88
U7G U8C G9A U11C | 1.4
U7G U8C G9A U11G | 1.3
U7G U8C G9C U10G U11A C12A C13A | 1.1
U7G U8C G9C U10G U11A C12A C13G | 1.11
U7G U8C G9C U10G U11A C12A C13U | 1.25
U7G U8C G9C U11G C12G C13U | 1.1
U7G U8C G9C U11G C12G C13A | 1.12
U7G U8C G9C U11G C12G C13G | 1.12
U7G U8C G9C U10A U11A C12U C13A | 1.07
U7G U8C G9C U10A U11A C12U C13U | 1.08
U7G U8C G9C U10A U11A C12U C13G | 1.09
U7G U8C G9C U10C C12A | 1.13
U7G U8C G9C U10C C12U | 1.16

Variant | aptazyme ON/OFF ratio
U7G U8C G9C U10C C12G | 1.1
U7G U8C G9C U10C C12U C13U | 1.04
U7G U8C G9C U10C C12U C13A | 1.07
U7G U8C G9C U10C C12U C13G | 1.13
U7G U8C G9C U11G C12A C13U | 1.23
U7G U8C G9C U11G C12A C13G | 1.33
U7G U8C G9C U11G C12A C13A | 1.14
U7G U8C G9C U10A U11A C12A C13G | 1.09
U7G U8C G9C U10A U11A C12A C13A | 1.12
U7G U8C G9C U10A U11A C12A C13U | 1.11
U7G U8C G9U U10A | 4.06
U7G U8C G9U C12A C13G | 1.26
U7G U8C G9U C12A C13U | 1.2
U7G U8C G9U C12A C13A | 1.34
U7G U8C G9C U10C U11G | 1.05
U7G U8C G9C U10C U11A | 1.39
U7G U8C G9C U10C U11C | 1.05
U7G U8C G9C U10C U11G C13A | 1.07
U7G U8C G9C U10C U11G C13U | 1.07
U7G U8C G9C U10C U11G C13G | 1.14
U7G U8C G9A U11C C12A | 2
U7G U8C G9A U11C C12U | 1.65
U7G U8C G9A U11C C12G | 1.4
